The text below walks through data of patent US20220324943A1 (UNIVERSITY OF FLORIDA RESEARCH FOUNDATION, published 2022).

One assay has as its target T1, acidic FGF (UniProt P05230 16-155, limits assumed).
T1 construct: also called acidic FGF ligand
Kind of assay: SPR, FGFR1-CCD injected over immobilized ligand. The method, then:
Using a surface plasmon resonance (SPR) technique, the binding kinetics of FGFR1 was measured with two ligands, basic FGF and acidic FGF. A null FGFR1 ligand, vascular endothelial growth factor A (VEGFA), was used as a control. In SPR experiments, the binding of a molecule in the soluble phase (e.g. the peptide of the fusion protein) to a ligand molecule immobilized on a sensor surface is directly measured as a reflected light signal (SPR signal) in a biosensor device. The sensor device may contain an LED-emitting near infrared light, a glass prism fixed to a sensor microchip, and a position-sensitive diode array detector. Binding events cause changes in the refractive index at the surface layer, which are detected as changes in the SPR signal. Specifically, a signal arises when incident LED light is totally internally reflected from the metal-coated interface between two media of different refractive indices (the glass prism and solution). When the incident light is focused on the surface in a wedge, the drop in intensity at the resonance angle appears as a “shadow” in the reflected light wedge, which is detected by the detector. […]
This sensorgram consists of two phases: (Left) In the association phase, the FGFR1-CCD was injected over immobilized ligands on the surface. […] Binding kinetics, including the value of KD, the dissociation constant, can be calculated from the sensorgram.
(Surface plasmon resonance follows binding to a sensor surface in real time, without labels.)

In assay [1] the target is T2, amyloid beta peptide (Aβ) (UniProt P05067 672-713).
T2 construct: also called Aβ9; Aβ9 ligand
T2 sequence (P05067 672-713): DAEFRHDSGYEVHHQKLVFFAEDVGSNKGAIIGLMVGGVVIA
Kind of assay: ELISA on plates coated with Aβ42 peptide, detection with anti-FLAG M2 HRP ('Ab9 scFv activity, Aβ42 ELISA'). The protocol:
An ELISA-based assay was performed to assess Aβ9 scFv activity. 96-well plates were coated with Aβ42 peptide, and 293T conditioned media (containing the GBA-CCD and GBA-CCD-Aβ9 scFv proteins) and cell lysate were then added and incubated for 6 hours. ELISA was developed with anti-FLAG M2 HRP. (See FIG. 23.)
A general note: ELISA stands for enzyme-linked immunosorbent assay.

T1 sequence (P05230 16-155 limits assumed): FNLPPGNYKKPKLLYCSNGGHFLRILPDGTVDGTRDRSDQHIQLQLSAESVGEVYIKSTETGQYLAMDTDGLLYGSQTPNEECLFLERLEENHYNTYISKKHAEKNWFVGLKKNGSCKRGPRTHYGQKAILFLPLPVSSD

B1: FGFR1-CCD fusion protein (receptor)
chain: RPSPTLPEQAQPWGAPVEVESFLVHPGDLLQLRCRLRDDVQSINWLRDGVQLAESNRTRITGEEVEVQDSVPADSGLYACVTSSPSGSDTTYFSVNVSDALPSSEDDDDDDDSSSEEKETDNTKPNPVAPYWTSPEKMEKKLHAVPAAKTVKFKCPSSGTPNPTLRWLKNGKEFKPDHRIGGYKVRYATGSIIMDSVVPSDKGNYTCIVENEYGSINHTYQLDVVERSPHRPILQAGLPANKTVALGSNVEFMCKVYSDPQPHIQWLKHIEVNGSKIGPDNLPYVQILKTAGVNTTDKEMEVLHLRNVSFEDAGEYTCLAGNSIGLSHHSAWLTVLEALEERPAVMLKEFMGYQGPPGPPGPPGIPGNHGNNGNNGATGHEGAKGEKGDKGDLGPRGERGQHGPKGEKGYPGIPGYCGPPGPPGPPGIPGNHGNNGNNGATGHEGAKGEKGDKGDLGPRGERGQHGPKGEKGYPGIPDYKDDDDKLQISSTVAAAHHHHHHV
notes: CCD fusions are said to form multimers (trimers, hexamers); It was expressed in cells, isolated and purified; also called Fibroblast growth factor receptor 1 (hsFGFR1) CCD fusion
Consider B1, for which the Kd (in general, the constant that tells how readily two partners part at equilibrium) in the assay with acidic FGF was below 1 pM.

B2: GBA_AB9 (scFv)
fusion protein monomer: ARPCIPKSFGYSSVVCVCNATYCDSFDPPTFPALGTFSRYESTRSGRRMELSMGPIQANHTGTGLLLTLQPEQKFQKVKGFGGAMTDAAALNILALSPPAQNLLLKSYFSEEGIGYNIIRVPMASCDFSIRTYTYADTPDDFQLHNFSLPEEDTKLKIPLIHRALQLAQRPVSLLASPWTSPTWLKTNGAVNGKGSLKGQPGDIYHQTWARYFVKFLDAYAEHKLQFWAVTAENEPSAGLLSGYPFQCLGFTPEHQRDFIARDLGPTLANSTHHNVRLLMLDDQRLLLPHWAKVVLTDPEAAKYVHGIAVHWYLDFLAPAKATLGETHRLFPNTMLFASEACVGSKFWEQSVRLGSWDRGMQYSHSIITNLLYHVVGWTDWNLALNPEGGPNWVRNFVDSPIIVDITKDTFYKQPMFYHLGHFSKFIPEGSQRVGLVASQKNDLDAVALMHPDGSAVVVVLNRSSKDVPLTIKDPAVGFLETISPGYSIHTYLWRRQLKEFMGYQGPPGPPGPPGIPGNHGNNGNNGATGHEGAKGEKGDKGDLGPRGERGQHGPKGEKGYPGIPGYCGPPGPPGPPGIPGNHGNNGNNGATGHEGAKGEKGDKGDLGPRGERGQHGPKGEKGYPGIPDYKDDDDKLQISGGGGSGGGGSQVTLKESGPGILQPSQTLSLTCSFSGFSLNTFGMGVSWIRQPSGKGLEWLAHIFWDDDKHYNPSLKSRLTISKDTSNNQVFLKITTVDTADTATYYCVRYGFDGFPYWGQGTLVTVSAGGGGSGGGGSGGGGSDVVMTQTPLSLPVSLGDQASISCRSNQSLVHSNGNTYLHWYLQKPGQSPKLLIYKVSNRFSGVPDRFSGSGSGTDFTLKISRVEAEDLGFYFCSQSTRVPWTFGGGTKLELKRAAAHHHHHHV
notes: fusion of glucocerebrosidase, CCD and Aβ9 scFv; tested as conditioned media and as protein purified from media and lysate; also called hGBA-CCD-Aβ9 scFv; GBA-CCD-antiAβ9 scFv fusion protein
In the case of B2, the binding result in assay [1] was “binds”.
